# Source: publication PMC9282883 (Nature, 2021)
# Legend:
# [1] = target: T1, SARS-CoV-2 RBD WT (for SPR binding assays) (SARS-CoV-2, Wuhan-Hu-1 (WT), UniProt P0DTC2); test: SPR
# [2] = target: T1, SARS-CoV-2 RBD WT (for SPR binding …); test: cell-based or functional assay
Binder,Kd [1] [nM],"IC50, neutralisation of authentic SARS-CoV-2 (SARS-CoV-2-Nluc) on Vero E6 cells [2] [mg/L]","IC90, neutralisation of authentic SARS-CoV-2 (SARS-CoV-2-Nluc) on Vero E6 cells [2] [mg/L]"
"S2D106 IgG1 (antibody, V domains shown) VH: EVQLVQSGAEVKKPGSSVKVSCKASGGPFSSSAISWVRQAPGQGLEWMGGIIPMVGTANYAQKFQGRVTITADESTSTAYMELSSLRSEDTAVYYCARDSRYCSGGSCYSVWFDPWGQGTLVTVSS VL: not shown",0.04,0.0068,0.0236
"S2D106 Fab (Fab, V domains shown) VH: EVQLVQSGAEVKKPGSSVKVSCKASGGPFSSSAISWVRQAPGQGLEWMGGIIPMVGTANYAQKFQGRVTITADESTSTAYMELSSLRSEDTAVYYCARDSRYCSGGSCYSVWFDPWGQGTLVTVSS VL: not shown",0.05,–,–
"S2E12 IgG1 (antibody, V domains shown) VH: not shown VL: DIVLTQTPGTLSLSPGERATLSCRASQSVSSSYLAWYQQKPGQAPRLLIYGASSRATGIPDRFSGSGSGTDFTLTISRLEPEDFAVYYCQQYVGLTGWTFGQGTKVEIK",0.7,0.0045,0.014
"S2E12 Fab (Fab, V domains shown) VH: not shown VL: DIVLTQTPGTLSLSPGERATLSCRASQSVSSSYLAWYQQKPGQAPRLLIYGASSRATGIPDRFSGSGSGTDFTLTISRLEPEDFAVYYCQQYVGLTGWTFGQGTKVEIK",1.7,–,–
"S2H97 IgG1 (antibody, V domains shown) VH: QVRLVQSGAEVKKSGESLKISCKGSGYSFTSYWIGWVRQMPGKGLEWMGIIYPGDSDTRYSPSFQGQVTISADKSISTVYLQWSSLKASDTAMYYCARQWSHYTYDYYYWGQGTLVTISS VL: QSVLTQPASVSGSPGQSITISCTGISSDVGGYNSVSWYQQHPGKAPKLMIYDVTNRPSGVSNRFSGSKSGNTASLTISGLQAEDEADYYCSSYTSSSTPPYVFGTGTKVSVL",0.04,0.749,3.29
"S2H97 Fab (Fab, V domains shown) VH: QVRLVQSGAEVKKSGESLKISCKGSGYSFTSYWIGWVRQMPGKGLEWMGIIYPGDSDTRYSPSFQGQVTISADKSISTVYLQWSSLKASDTAMYYCARQWSHYTYDYYYWGQGTLVTISS VL: QSVLTQPASVSGSPGQSITISCTGISSDVGGYNSVSWYQQHPGKAPKLMIYDVTNRPSGVSNRFSGSKSGNTASLTISGLQAEDEADYYCSSYTSSSTPPYVFGTGTKVSVL",0.04,–,–
"S304 IgG1 (antibody, V domains shown) VH: EVQLVESGGGLVQPGGSLRLSCAASGFTFSSYDMHWVRQTTGKGLEWVSTIGTAGDTYYPDSVKGRFTISREDAKNSLYLQMNSLRAGDTAVYYCARGDSSGYYYYFDYWGQGTLLTVSS VL: DIQMTQSPSSLSAAVGDRVTITCRASQSIGSYLNWYQQKPGKAPKLLIYAASSLQSGVPSRFSGSGSGTDFTLTISSLQPEDFAIYYCQQSYVSPTYTFGPGTKVDIK",0.4,14.4,–
"S304 Fab (Fab, V domains shown) VH: EVQLVESGGGLVQPGGSLRLSCAASGFTFSSYDMHWVRQTTGKGLEWVSTIGTAGDTYYPDSVKGRFTISREDAKNSLYLQMNSLRAGDTAVYYCARGDSSGYYYYFDYWGQGTLLTVSS VL: DIQMTQSPSSLSAAVGDRVTITCRASQSIGSYLNWYQQKPGKAPKLLIYAASSLQSGVPSRFSGSGSGTDFTLTISSLQPEDFAIYYCQQSYVSPTYTFGPGTKVDIK",1,–,–
"S2X35 IgG1 (antibody, V domains shown) VH: QVQLVQSGAEVKKPGASVKVSCKASGYTFTNYGISWVRQAPGQGLEWMGWISAYKGNTNYAQKLQGRVTMTTDTSTSTAYMELRSLRSDDTAVYYCARPDYQVLGYDFWIGYYGMDVWGQGTTVIVSS VL: QSVLTQPPSVSGAPGQRVTISCTGSSSNIGAGYDVHWYQQLPGTAPKLLIYGNTNRPSGVPDRFSGSKSGTSASLAITGLQAEDEADYYCQSYDSSLSGSEVVFGGGTKLTVL",0.06,0.179,0.593
"S2X35 Fab (Fab, V domains shown) VH: QVQLVQSGAEVKKPGASVKVSCKASGYTFTNYGISWVRQAPGQGLEWMGWISAYKGNTNYAQKLQGRVTMTTDTSTSTAYMELRSLRSDDTAVYYCARPDYQVLGYDFWIGYYGMDVWGQGTTVIVSS VL: QSVLTQPPSVSGAPGQRVTISCTGSSSNIGAGYDVHWYQQLPGTAPKLLIYGNTNRPSGVPDRFSGSKSGTSASLAITGLQAEDEADYYCQSYDSSLSGSEVVFGGGTKLTVL",0.2,–,–
